Data reported in patent publication US6703362 (CYTOGEN, dated 2004).

T1: D2H receptor domain (human D2H transporter, amino acid residues 387-685), His-tag fusion protein (human, UniProt Q07837 387-685)
T1 construct: purified under denaturing conditions; also called recombinant D2H; not shown: poly-histidine tag (pET vector) at the NH2-terminal end
T1 sequence: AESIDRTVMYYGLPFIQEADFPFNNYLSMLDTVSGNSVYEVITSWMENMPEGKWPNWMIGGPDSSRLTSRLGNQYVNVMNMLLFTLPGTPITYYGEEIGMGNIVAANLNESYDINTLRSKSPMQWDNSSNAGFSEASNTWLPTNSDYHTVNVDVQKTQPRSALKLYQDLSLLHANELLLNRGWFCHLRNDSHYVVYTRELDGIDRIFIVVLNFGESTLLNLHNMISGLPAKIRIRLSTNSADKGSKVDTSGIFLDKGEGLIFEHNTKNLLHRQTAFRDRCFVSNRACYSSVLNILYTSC

T2: HPT1 receptor domain (human intestinal peptide-associated transporter HPT1, amino acid residues 29-273), … (human, UniProt Q12864 29-273)
T2 construct: purified under denaturing conditions; also called recombinant HPT1; not shown: poly-histidine tag (pET vector) at the NH2-terminal end
T2 sequence: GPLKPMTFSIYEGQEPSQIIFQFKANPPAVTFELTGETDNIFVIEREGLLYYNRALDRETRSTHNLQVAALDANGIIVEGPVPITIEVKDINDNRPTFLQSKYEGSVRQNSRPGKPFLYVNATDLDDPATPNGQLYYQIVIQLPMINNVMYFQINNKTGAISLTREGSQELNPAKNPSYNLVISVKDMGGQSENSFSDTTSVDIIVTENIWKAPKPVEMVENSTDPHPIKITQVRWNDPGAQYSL

B1: DCX26 (peptide)
peptide: SGRTTSEISGLWGWGDDRSGYGWGNTLRPNYIPYRQATNRHRYTAETVESCLAKPHTENSFTNVWKDDKTLDRYANYEGCLWNATGVVVCTGDETQCYGTWVPIGLAIPENEGGGSEGGGSEGGGSEGGGTKPPEYGDTPIPGYTYINPLDGTYPPGTEQNPANPNPSLEESQPLNTFMFQNNRFRNRQGALTVYTGTVTQGTDPVKTYYQYTPVSSKAMYDAYWNGKFRDCAFHSGFNEDPFVCEYQGQSSDLPQPPVNAGGGSGGGSGGGSEGGGSEGGGSEGGGSEGGGSGGGSGSGDFDYEKMANANKGAMTENADENALQSDAKGKLDSVATDYGAAIDGFIGDVSGLANGNGATGDFAGSNSQMAQVGDGDNSPLMNNFRQYLPSLPQSVECRPFVFSAGKPYEFSIDCDKINLFRGVFAFLLYVATFMYVFSTFANILRNKES
notes: Assayed as M13 phage clone displaying the insert
B2: SNiAX8 (peptide)
peptide: SPKLSSVGVMTKVTELPTEGPNAISIPISATLGPRNPLRAETVESCLAKPHTENSFTNVWKDDKTLDRYANYEGCLWNATGVVVCTGDETQCYGTWVPIGLAIPENEGGGSEGGGSEGGGSEGGGTKPPEYGDTPIPGYTYINPLDGTYPPGTEQNPANPNPSLEESQPLNTFMFQNNRFRNRQGALTVYTGTVTQGTDPVKTYYQYTPVSSKAMYDAYWNGKFRDCAFHSGFNEDPFVCEYQGQSSDLPQPPVNAGGGSGGGSGGGSEGGGSEGGGSEGGGSEGGGSGGGSGSGDFDYEKMANANKGAMTENADENALQSDAKGKLDSVATDYGAAIDGFIGDVSGLANGNGATGDFAGSNSQMAQVGDGDNSPLMNNFRQYLPSLPQSVECRPFVFSAGKPYEFSIDCDKINLFRGVFAFLLYVATFMYVFSTFANILRNKES
notes: as for B1
B3: DCX36 (peptide)
peptide: SWSSWNWSSKTTRLGDRATREGCGPSQSDGCPYNGRLTTVKPRTAETVESCLAKPHTENSFTNVWKDDKTLDRYANYEGCLWNATGVVVCTGDETQCYGTWVPIGLAIPENEGGGSEGGGSEGGGSEGGGTKPPEYGDTPIPGYTYINPLDGTYPPGTEQNPANPNPSLEESQPLNTFMFQNNRFRNRQGALTVYTGTVTQGTDPVKTYYQYTPVSSKAMYDAYWNGKFRDCAFHSGFNEDPFVCEYQGQSSDLPQPPVNAGGGSGGGSGGGSEGGGSEGGGSEGGGSEGGGSGGGSGSGDFDYEKMANANKGAMTENADENALQSDAKGKLDSVATDYGAAIDGFIGDVSGLANGNGATGDFAGSNSQMAQVGDGDNSPLMNNFRQYLPSLPQSVECRPFVFSAGKPYEFSIDCDKINLFRGVFAFLLYVATFMYVFSTFANILRNKES
notes: as for B1
B4: DCX33 (peptide)
peptide: RWNWTVLPATGGHYWTRSTDYHAINNHRPSIPHQHPTPIAETVESCLAKPHTENSFTNVWKDDKTLDRYANYEGCLWNATGVVVCTGDETQCYGTWVPIGLAIPENEGGGSEGGGSEGGGSEGGGTKPPEYGDTPIPGYTYINPLDGTYPPGTEQNPANPNPSLEESQPLNTFMFQNNRFRNRQGALTVYTGTVTQGTDPVKTYYQYTPVSSKAMYDAYWNGKFRDCAFHSGFNEDPFVCEYQGQSSDLPQPPVNAGGGSGGGSGGGSEGGGSEGGGSEGGGSEGGGSGGGSGSGDFDYEKMANANKGAMTENADENALQSDAKGKLDSVATDYGAAIDGFIGDVSGLANGNGATGDFAGSNSQMAQVGDGDNSPLMNNFRQYLPSLPQSVECRPFVFSAGKPYEFSIDCDKINLFRGVFAFLLYVATFMYVFSTFANILRNKES
notes: as for B1
B5: DCX45 (peptide)
peptide: SVGNDKTSRPVSFYGRVSDLWNASLMPKRTPSSKRHDDGAETVESCLAKPHTENSFTNVWKDDKTLDRYANYEGCLWNATGVVVCTGDETQCYGTWVPIGLAIPENEGGGSEGGGSEGGGSEGGGTKPPEYGDTPIPGYTYINPLDGTYPPGTEQNPANPNPSLEESQPLNTFMFQNNRFRNRQGALTVYTGTVTQGTDPVKTYYQYTPVSSKAMYDAYWNGKFRDCAFHSGFNEDPFVCEYQGQSSDLPQPPVNAGGGSGGGSGGGSEGGGSEGGGSEGGGSEGGGSGGGSGSGDFDYEKMANANKGAMTENADENALQSDAKGKLDSVATDYGAAIDGFIGDVSGLANGNGATGDFAGSNSQMAQVGDGDNSPLMNNFRQYLPSLPQSVECRPFVFSAGKPYEFSIDCDKINLFRGVFAFLLYVATFMYVFSTFANILRNKES
notes: as for B1
B6: HCA3 (peptide)
peptide: RHISEYSFANSHLMGGESKRKGCGINGSFSPTCPRSPTPAFRRTAETVESCLAKPHTENSFTNVWKDDKTLDRYANYEGCLWNATGVVVCTGDETQCYGTWVPIGLAIPENEGGGSEGGGSEGGGSEGGGTKPPEYGDTPIPGYTYINPLDGTYPPGTEQNPANPNPSLEESQPLNTFMFQNNRFRNRQGALTVYTGTVTQGTDPVKTYYQYTPVSSKAMYDAYWNGKFRDCAFHSGFNEDPFVCEYQGQSSDLPQPPVNAGGGSGGGSGGGSEGGGSEGGGSEGGGSEGGGSGGGSGSGDFDYEKMANANKGAMTENADENALQSDAKGKLDSVATDYGAAIDGFIGDVSGLANGNGATGDFAGSNSQMAQVGDGDNSPLMNNFRQYLPSLPQSVECRPFVFSAGKPYEFSIDCDKINLFRGVFAFLLYVATFMYVFSTFANILRNKES
notes: as for B1
B7: DCX42 (peptide)
peptide: RYSGLSPRDNGPACSQEATLEGCGAQRLMSTRRKGRNSRPGWTLAETVESCLAKPHTENSFTNVWKDDKTLDRYANYEGCLWNATGVVVCTGDETQCYGTWVPIGLAIPENEGGGSEGGGSEGGGSEGGGTKPPEYGDTPIPGYTYINPLDGTYPPGTEQNPANPNPSLEESQPLNTFMFQNNRFRNRQGALTVYTGTVTQGTDPVKTYYQYTPVSSKAMYDAYWNGKFRDCAFHSGFNEDPFVCEYQGQSSDLPQPPVNAGGGSGGGSGGGSEGGGSEGGGSEGGGSEGGGSGGGSGSGDFDYEKMANANKGAMTENADENALQSDAKGKLDSVATDYGAAIDGFIGDVSGLANGNGATGDFAGSNSQMAQVGDGDNSPLMNNFRQYLPSLPQSVECRPFVFSAGKPYEFSIDCDKINLFRGVFAFLLYVATFMYVFSTFANILRNKES
notes: as for B1
B8: DCX39 (peptide)
peptide: SGSLNAWQPRSWVGGAFRSHANNNLNPKPTMVTRHPTAETVESCLAKPHTENSFTNVWKDDKTLDRYANYEGCLWNATGVVVCTGDETQCYGTWVPIGLAIPENEGGGSEGGGSEGGGSEGGGTKPPEYGDTPIPGYTYINPLDGTYPPGTEQNPANPNPSLEESQPLNTFMFQNNRFRNRQGALTVYTGTVTQGTDPVKTYYQYTPVSSKAMYDAYWNGKFRDCAFHSGFNEDPFVCEYQGQSSDLPQPPVNAGGGSGGGSGGGSEGGGSEGGGSEGGGSEGGGSGGGSGSGDFDYEKMANANKGAMTENADENALQSDAKGKLDSVATDYGAAIDGFIGDVSGLANGNGATGDFAGSNSQMAQVGDGDNSPLMNNFRQYLPSLPQSVECRPFVFSAGKPYEFSIDCDKINLFRGVFAFLLYVATFMYVFSTFANILRNKES
notes: as for B1

Legend:
[1] = target: T1, D2H receptor domain (human D2H …); test: phage ELISA, plate coated with D2H domain
Experimental: (§1) 6.6. Receptor ELISA Procedure 96 well plates were coated overnight with GIT receptor, BSA and, optionally, IDE (insulin degrading enzyme, an irrelevant His-fusion protein)or hTF. The plates were blocked for one hour with 0.5% BSA-PBS. After clarification, the amplified phage were diluted 1:100 in […] plus 0.05% Tween 20 in PBS and added to the plates. Following incubation of the plates on a rotator for 1 to 2 hours, the plates were washed 5 times with 1% BSA plus 0.05% Tween 20 in PBS. […] After the plates were washed 5 times, as described above, TMB substrate was added to the wells. The plates were read at 650 nm absorbance.
Binding to fixed Caco-2 cells, D2H and BSA was examined.

[2] = target: T3, hSI receptor domain (human sucrase-isomaltase complex, amino acid residues 272-667), His-tag fusion protein (human, UniProt P14410 272-667); test: phage ELISA, plate coated with hSI domain
T3 construct: also called hS1; recombinant hSI; not shown: poly-histidine tag (pET vector) at the NH2-terminal end
T3 sequence (P14410 272-667, one chain of several): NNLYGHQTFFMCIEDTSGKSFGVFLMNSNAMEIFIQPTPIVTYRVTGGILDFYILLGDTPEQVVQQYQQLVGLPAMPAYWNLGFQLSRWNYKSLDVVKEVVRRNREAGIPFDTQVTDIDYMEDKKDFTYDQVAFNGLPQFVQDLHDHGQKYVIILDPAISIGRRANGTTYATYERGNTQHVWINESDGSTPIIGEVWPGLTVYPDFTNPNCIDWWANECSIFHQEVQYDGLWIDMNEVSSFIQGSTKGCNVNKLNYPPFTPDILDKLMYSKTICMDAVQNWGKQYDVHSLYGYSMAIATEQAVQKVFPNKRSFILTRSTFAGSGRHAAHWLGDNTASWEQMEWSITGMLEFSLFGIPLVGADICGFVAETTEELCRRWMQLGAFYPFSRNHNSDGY
Experimental: as §1

[3] = target: T3, hSI receptor domain (human …); test: phage ELISA, OD on hSI over OD on BSA
Experimental: as §1

[4] = target: T2, HPT1 receptor domain (human intestinal …); test: phage ELISA, OD on HPT1 over OD on BSA
Experimental: as §1

| Binder | OD [1] [OD] | also measured |
| --- | --- | --- |
| B1 | 0.956 | – |
| B2 | – | OD [2]: 0.342 OD; hSI/BSA [3]: 5 ratio |
| B3 | 0.293 | – |
| B4 | 0.616 | – |
| B5 | 0.336 | – |
| B6 | – | HPT1/BSA [4]: 1 ratio |
| B7 | 0.158 | – |
| B8 | 0.299 | – |
